Data: patent US20040022780A1, “Serine protease and topical retinoid compositions useful for treatment of acne vulgarise and production of anti-aging effects” (priority 1997, published 2004)

What was measured:
[1] = system: Rhino mouse skin; test: Delivery of fluorescently labeled trypsin into hair follicles (fluorescent microscopy); assay type: in vivo
Experimental: About 100 μL of the topically active trypsin composition of Example 2 was applied to the dorsal side of each Rhino mouse of Example 1. The trypsin used in this composition was fluorescently-labeled with a protein fluorescent labeling kit available from Molecular Probes, Inc. in accordance with its accompanying protocol (1996). At one and four hours after the application of the fluorescent trypsin treatment, a 1 cm by 2 cm sample of the skin surface of each mouse was isolated from each mouse with scissors, fixed with a 10% buffered formalin solution having a pH of about 6.9-7.1 at 25° C. available from Stephens Scientific, then formed into a paraffin block according to well-known procedures, and examined with fluorescent microscopy according to well-known methods.
This Example was repeated on similar Rhino mice of Example 1, with the exception that these mice were treated daily for 5 days with the 1% (w/v) trypsin composition of Example 2 prior to the fluorescent trypsin treatment. Four hours after the application of the fluorescent trypsin treatment on the fifth day, the skins of these mice were analyzed using similar fluorescent microscopic methods. […] This loss of barrier integrity is reflected in the values for transepidermal water loss (“TEWL”) as described in Example 4 and Table 1 herein.

[2] = system: follicular epithelium of Rhino mouse skin; test: TUNEL stain of skin for apoptotic bodies; assay type: in vivo; details: 0.1% (w/v) trypsin daily for five days, sacrificed at day eight
Experimental: Rhino mice of Example 1 were treated daily with a 0.1% (w/v) trypsin composition of Example 2 for five days and sacrificed at day eight.
1 cm by 2 cm samples of the skins of untreated, vehicle treated, and trypsin treated mice were obtained via the procedure set forth in Example 3 then analyzed using a TdT-mediated dUTP-biotin nick end labeling (“TUNEL”) stain procedure as disclosed in Gavrieli et al., “Identification of Programmed Cell Death in situ Via Specific Labeling of Nuclear DNA Fragmentation”, 119 Jl. Cell Biology 493-501 (1992) (“Gavrieli”). During this procedure, the prepared skin sections were stained using an “ApopTag™ Plus In Situ Apoptosis Detection Kit” available from Oncor, Inc. as specified in the “ApopTag™ Plus In Situ Apoptosis Detection Kit” protocol by Oncor, Inc. (Feb. 1995), which is based upon the labeling of fragmented DNA ends as described in Gavrieli. FIGS. 5(a-d) show a histological analysis wherein the stain has a peroxidase end point (brown) and a methyl green counter-stain. The resulting representations of this are provided in FIGS. 5(a&b) which are vehicle treated and FIGS. 5(c&d) which are trypsin treated.

[3] = system: Elastin mRNA; test: RT-PCR gene expression in skin, elastin; assay type: in vivo, Rhino mouse; details: increasing concentrations of trypsin (0.0001-0.01% (w/v)) daily for five days
Experimental: (§1) Rhino mice of Example 1 were treated daily with trypsin compositions (0% (w/v), 0.0001% (w/v), 0.001% (w/v), and 0.01% (w/v)), as prepared in Example 2, for five days and sacrificed at day eight. The skins of vehicle treated mice and trypsin-treated mice were obtained as described in Example 3, then their total RNAs were extracted using “RNA Stat-60” reagent available from Tel-Test “B,” Inc. as described in Chomczymski, “Single Step Method of RNA Isolation By Acid Guanidinium Thiocyanate-phenol-chloroform extraction,” 162 Anal. Biochem. 156-59 (1987) which is incorporated herein by reference in its entirety. A sufficient amount of RNase-free DNase available from Promega, Corp. under the tradename “RQ1 RNase-free DNase” was then added to the extracted RNA from each mouse such that each respective product contained 200 ng of DNased-RNA using the procedure set forth in “RNase-free DNase” protocol published by Promega, Corp. (May, 1995). […]
(§2) The PCR products were then analyzed on 2% agarose/ethidium bromide gels according to methods well-known in the art in order to compare the level of expression of certain genes in skins of trypsin-treated and untreated mice. […]

[4] = system: involucrin; test: RT-PCR gene expression in skin, involucrin; assay type: in vivo, Rhino mouse; details: trypsin (0.0001-0.01% (w/v)) daily for five days, dose dependent
Experimental: as §1, §2

B1: trypsin (protein, UniProt P00760 24-246, looked up)
Serine protease 1: IVGGYTCGANTVPYQVSLNSGYHFCGGSLINSQWVVSAAHCYKSGIQVRLGEDNINVVEGNEQFISASKSIVHPSYNSNTLNNDIMLIKLKSAASLNSRVASISLPTSCASAGTQCLISGWGNTKSSGTSYPDVLKCLKAPILSDSSCKSAYPGQITSNMFCAGYLEGGKDSCQGDSGGPVVCSGKLQGIVSWGSGCAQKNKPGVYTKVCNYVSWIKQTIASN
notes: lyophilyzed trypsin from Sigma-Aldrich, a serine protease, in Hepes buffer mixed with GDL liposomes
**Q.** Which “location of fluorescent labeling in skin” value ([1]; 1 hour and 4 hours after topical application of about 100 μL fluorescent trypsin composition) does the source give for B1 here?
**A.** almost all of the fluorescent labeling was found within the utriculi and sebaceous glands

**Q.** What about the “change in delivery route into utriculi and sebaceous glands” value ([1]; 4 hours after fluorescent trypsin, following 5 days of daily 1% (w/v) trypsin) of the same molecule?
**A.** no major change

**Q.** What about the “barrier integrity (staining at outer portion of stratum corneum)” value ([1]; following 5 days of daily 1% (w/v) trypsin) of the same molecule?
**A.** some loss of barrier integrity

**Q.** And the “apoptotic bodies within the follicular epithelium (TUNEL)” value [2]?
**A.** elimination of all the apoptotic bodies

**Q.** What about the “Elastin mRNA” value [3] of the same molecule?
**A.** increased

**Q.** And the level of involucrin [4]?
**A.** increased
